PMC4916044

Target: endogenous NFκB2 p100 (mouse (endogenous in NFκB2+/+ MEFs)) (UniProt Q9WTK5)
Experiment: immunodepletion

Chain of UniProt Q9WTK5 (Q9WTK5 whole entry): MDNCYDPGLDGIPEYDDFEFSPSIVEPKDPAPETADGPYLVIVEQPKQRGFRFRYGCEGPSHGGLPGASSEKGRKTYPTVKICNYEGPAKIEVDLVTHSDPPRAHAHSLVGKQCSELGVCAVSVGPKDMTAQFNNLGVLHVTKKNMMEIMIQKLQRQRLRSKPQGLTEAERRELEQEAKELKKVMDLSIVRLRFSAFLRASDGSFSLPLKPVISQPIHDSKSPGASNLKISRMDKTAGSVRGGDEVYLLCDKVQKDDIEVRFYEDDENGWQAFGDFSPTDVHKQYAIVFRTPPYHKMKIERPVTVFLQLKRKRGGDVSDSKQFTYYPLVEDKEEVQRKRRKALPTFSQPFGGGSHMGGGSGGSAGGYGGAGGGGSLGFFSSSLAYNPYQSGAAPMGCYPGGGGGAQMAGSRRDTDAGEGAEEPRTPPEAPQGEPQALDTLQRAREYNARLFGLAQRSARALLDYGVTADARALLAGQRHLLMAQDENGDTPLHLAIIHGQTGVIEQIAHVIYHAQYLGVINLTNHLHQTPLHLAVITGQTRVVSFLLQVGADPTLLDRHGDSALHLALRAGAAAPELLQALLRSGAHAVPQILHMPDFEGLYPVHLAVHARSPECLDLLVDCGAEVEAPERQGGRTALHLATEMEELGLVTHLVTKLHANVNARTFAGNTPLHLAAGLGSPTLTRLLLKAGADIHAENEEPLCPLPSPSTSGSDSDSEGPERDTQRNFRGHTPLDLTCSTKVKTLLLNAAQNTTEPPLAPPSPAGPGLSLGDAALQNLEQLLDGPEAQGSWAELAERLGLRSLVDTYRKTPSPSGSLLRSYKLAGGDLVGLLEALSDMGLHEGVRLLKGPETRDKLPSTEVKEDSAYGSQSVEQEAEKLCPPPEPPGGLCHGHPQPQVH

percent of endogenous ERK2 pulled down with p100 (immunodepletion): 46%
Substance: endogenous ERK2 (from UniProt P63085 1-358) (natural protein)
